Reference: PMC4954732

Legend:
[1] = target: T1, SrbA bHLHZ (Aspergillus fumigatus) (UniProt Q4WIN1); experiment: SPR; conditions: SPR on immobilised biotinylated duplexes, 1:1 model with mass transport; buffer, salt, pH and temperature not stated (protocols of refs 19, 54)
T1 sequence: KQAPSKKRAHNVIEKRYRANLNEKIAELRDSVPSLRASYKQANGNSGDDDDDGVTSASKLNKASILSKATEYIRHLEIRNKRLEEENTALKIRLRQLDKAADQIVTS

[2] = test system: CBC (HapB/HapC/HapE) (Aspergillus fumigatus); experiment: SPR; conditions: SPR on immobilised biotinylated duplexes, 1:1 model with mass transport; buffer, salt, pH and temperature not stated (protocols of refs 19, 54)

“AGAATCACGCGGTCCG (double strand) [SRE1 (cyp51Ap-320-16)]” gave a Kd [1] of 22.8 nM.

“CGGCTCAGCACACATC (double strand) [SRE2 (cyp51Ap-295-16)]” showed a Kd [1] of 273 nM.

Sequence “GCTGAGCCGAATGAAAGTTGCCTAATTACTAAGGTGT (double strand) [cyp51A-293]” has a Kd [2] of 74.4 nM.

In the case of “GCTGAGCCGAATGAATCACGCGGTCCGGATGTGTGCT (double strand) [cyp51A-TR34]”, the fold decrease in affinity (fold lower affinity than cyp51A-293) [2] is reported as 8.
